Among the data in PMC8944910 are Kd values, retold here.

For assay [1], the target named is His-tagged eukaryotic translation initiation factor 1 (His–eIF1), labelled with NT650 (UniProt P32911). Description: temperature-related intensity change assay.
For assay [2] the target is unchanged. The experiment in a line: temperature-related intensity change assay. This is another data set of the same source.

Read-outs that look alike come from different tables or passages of the source.

As usually defined, the Kd is the concentration at which binding is half-saturated. Low values mean higher affinity, high ones lower affinity.

UniProt P32911, sequence (P32911 whole entry): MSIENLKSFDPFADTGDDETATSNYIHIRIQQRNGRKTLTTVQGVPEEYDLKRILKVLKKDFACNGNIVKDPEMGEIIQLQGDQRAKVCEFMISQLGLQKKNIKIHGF

“hypo-2′-O-methylated 40S ribosomal subunit from bcd1-D72A yeast cells (from UniProt P05750 1-240) (complex)”: the equilibrium dissociation constant (Kd) in assay [1] came to 64 nM; in assay [2], 63 nM.
Turning to “40S ribosomal subunit from wild-type control (BY4741 / BCD1) yeast cells (from UniProt P05750 1-240) (complex)”, in assay [1], the Kd worked out at 23 nM. That is a double-digit nanomolar value.
